Assay results: patent US20210277137A1 (AbbVie / Abbott, published 2021)
Residue numbers refer to the chain shown, from its start. Names and notes keep the numbering of the source.

T1: human FcγRIIB (CD32b) on CHO cells (human, UniProt P31994 43-310)
T1 construct: whole, on cells
T1 sequence (looked up): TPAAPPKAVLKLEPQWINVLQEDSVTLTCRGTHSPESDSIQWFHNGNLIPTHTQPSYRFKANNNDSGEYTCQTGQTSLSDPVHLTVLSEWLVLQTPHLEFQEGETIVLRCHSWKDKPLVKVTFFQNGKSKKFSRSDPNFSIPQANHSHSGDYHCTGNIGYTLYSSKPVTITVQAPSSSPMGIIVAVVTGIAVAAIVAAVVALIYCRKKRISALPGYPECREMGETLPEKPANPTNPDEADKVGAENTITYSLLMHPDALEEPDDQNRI

T2: human FcγRIIA (CD32a) on CHO cells (human, UniProt P12318 34-317)
T2 construct: whole, on cells
T2 sequence (looked up): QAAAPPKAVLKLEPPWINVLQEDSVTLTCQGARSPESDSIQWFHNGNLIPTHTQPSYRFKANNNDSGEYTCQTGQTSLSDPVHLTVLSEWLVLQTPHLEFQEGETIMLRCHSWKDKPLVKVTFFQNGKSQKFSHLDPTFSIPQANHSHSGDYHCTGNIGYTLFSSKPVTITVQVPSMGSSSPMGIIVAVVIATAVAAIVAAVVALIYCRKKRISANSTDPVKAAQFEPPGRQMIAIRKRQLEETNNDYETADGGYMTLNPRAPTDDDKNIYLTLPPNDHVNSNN

B1: huAb9-5 human IgG1 V273E variant (antibody)
heavy: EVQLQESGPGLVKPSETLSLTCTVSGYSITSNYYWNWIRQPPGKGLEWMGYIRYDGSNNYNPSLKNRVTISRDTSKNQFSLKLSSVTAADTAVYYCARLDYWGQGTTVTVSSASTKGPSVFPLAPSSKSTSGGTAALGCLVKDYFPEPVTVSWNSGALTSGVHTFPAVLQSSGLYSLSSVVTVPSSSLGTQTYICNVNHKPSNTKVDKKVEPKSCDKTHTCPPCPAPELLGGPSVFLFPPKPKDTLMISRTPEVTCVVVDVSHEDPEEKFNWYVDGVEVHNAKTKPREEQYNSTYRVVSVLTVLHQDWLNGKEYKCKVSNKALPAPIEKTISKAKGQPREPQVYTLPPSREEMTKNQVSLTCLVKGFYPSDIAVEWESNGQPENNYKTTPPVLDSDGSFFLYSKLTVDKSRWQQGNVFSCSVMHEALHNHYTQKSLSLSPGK
light: DAVMTQTPLSLSVTPGQPASISCRSSQSLENTNGNTFLNWYLQKPGQSPQLLIYRVSNRFSGVPDRFSGSGSGTDFTLKISRVEAEDVGVYYCLQVTHVPFTFGQGTKLEIKRTVAAPSVFIFPPSDEQLKSGTASVVCLLNNFYPREAKVQWKVDNALQSGNSQESVTEQDSKDSTYSLSSTLTLSKADYEKHKVYACEVTHQGLSSPVTKSFNRGEC
notes: also called huAb9-5 V273E
B2: huAb9-5 human IgG1 V273Y variant (antibody)
heavy: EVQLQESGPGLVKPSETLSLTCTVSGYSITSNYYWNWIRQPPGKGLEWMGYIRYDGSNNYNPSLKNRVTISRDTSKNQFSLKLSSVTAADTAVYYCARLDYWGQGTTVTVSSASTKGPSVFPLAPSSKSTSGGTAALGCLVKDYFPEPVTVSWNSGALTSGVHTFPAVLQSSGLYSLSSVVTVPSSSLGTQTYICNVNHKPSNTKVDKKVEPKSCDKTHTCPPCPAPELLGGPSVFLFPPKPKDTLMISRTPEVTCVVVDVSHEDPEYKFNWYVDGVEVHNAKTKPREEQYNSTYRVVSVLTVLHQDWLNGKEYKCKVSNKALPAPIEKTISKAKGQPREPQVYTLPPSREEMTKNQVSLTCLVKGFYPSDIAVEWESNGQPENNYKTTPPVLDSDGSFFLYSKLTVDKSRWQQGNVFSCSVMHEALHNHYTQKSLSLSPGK
light: B1 light
notes: also called huAb9-5 V273Y
B3: HA-tagged CD40L (R&D Systems) (ligand)
chain: ENSFEMQKGDQNPQIAAHVISEASSKTTSVLQWAEKGYYTMSNNLVTLENGKQLTVKRQGLYYIYAQVTFCSNREASSQAPFIASLCLKSPGRFERILLRAANTHSSAKPCGQQSIHLGGVFELQPGASVFVNVTDPSQVSHGTGFTSFGLLKL
notes: bought; not shown: HA tag
B4: Humanized muAb8 #1 (antibody, V domains shown)
VH: EVQLVQSGAEVKKPGSSVKVSCKASGYTFTDYYINWVRQAPGQGLEWIGWIFPGSGSVYCNEQFKGRATLTVDRSTSTAYMELSSLRSEDTAVYFCASSLGKFAYWGQGTLVTVSS
VL: DIQMTQSPSSLSASVGDRVTITCKASQSVVTAVAWYQQKPGKSPKLLIYSASNRYTGVPSRFSGSGSGTDFTLTISSLQPEDFATYFCQQYSSYPYTFGGGTKVEIK
notes: human IgG1 constant region (natural variants D356E and L358M) and kappa light chain; also called huAb8-1
B5: Humanized muAb8 #3 (antibody, V domains shown)
VH: B4 VH with A68V, L70I, R74K, F95Y
VL: B4 VL
notes: human IgG1 constant region (natural variants D356E and L358M) and kappa light chain; also called huAb8-3

Columns and labels:
[1] = target: T1, human FcγRIIB (CD32b) on CHO cells; test: flow cytometry on CHO cells stably expressing human FcγRIIB (CD32b), detection with fluorescence-conjugated anti-human F(ab')2 secondary antibody
Procedure: (§1) Increasing amounts of anti-CD40 human IgG₁ antibodies and their Fc variants were incubated with CHO cells stably expressing different human Fcγ receptors, including FcγRI (CD64), FcγRIIA (CD32a), FcγRIIB (CD32b), and FcγRIIIA (CD16) with either F or V polymorphism. The binding was detected with a fluorescence-conjugated anti-human F(ab′)2 specific secondary antibody (Jackson ImmunoResearch).

[2] = target: T2, human FcγRIIA (CD32a) on CHO cells; test: flow cytometry on CHO cells stably expressing human FcγRIIA (CD32a), detection with fluorescence-conjugated anti-human F(ab')2 secondary antibody
Procedure: as §1

[3] = target: T3, human FcγRI (CD64) on CHO cells (human, UniProt P12314 16-374); test: flow cytometry on CHO cells stably expressing human FcγRI (CD64), detection with fluorescence-conjugated anti-human F(ab')2 secondary antibody
T3 construct: whole, on cells
Procedure: as §1

[4] = target: T4, human FcγRIIIA (CD16) with V polymorphism on CHO cells (human, UniProt P08637 17-254); test: flow cytometry on CHO cells stably expressing human FcγRIIIA (CD16V), detection with fluorescence-conjugated anti-human F(ab')2 secondary antibody
T4 construct: whole, on cells; V allotype; also called CD16V
Procedure: as §1

[5] = target: T5, CD40-human Fc (huFc) fusion protein (Creative BioMart) (human, UniProt P25942 21-193); test: ELISA: 1 µg/mL CD40-huFc with control huIgG1 on plate coated or not coated with HA-tagged CD40L, detection with HRP anti-human Fc
T5 construct: bought; also called CD40-huFc; not shown: human Fc
Description: (§2) After development with TMB (3, 3′, 5, 5′-tetramethylbenzidine) substrate, the plates were read at OD₄₅₀.

human CD40 on cells = human CD40 on cells (human, UniProt P25942 21-277); test: cell-based or functional assay
[6] = target: T5, CD40-human Fc (huFc) fusion protein …; test: competition ELISA: antibody titrated into 1 µg/mL CD40-huFc, mixture added to plate coated with HA-tagged CD40L, bound CD40-huFc detected with HRP anti-human Fc; blocked ligand: CD40L
Description: as §2

T5 sequence (P25942 21-193 limits assumed): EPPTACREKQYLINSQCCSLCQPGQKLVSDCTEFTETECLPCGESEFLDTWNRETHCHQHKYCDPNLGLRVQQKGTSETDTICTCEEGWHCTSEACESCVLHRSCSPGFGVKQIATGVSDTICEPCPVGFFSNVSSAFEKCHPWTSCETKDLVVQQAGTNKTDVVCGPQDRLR
human CD40 on cells, sequence (P25942 21-277 limits assumed): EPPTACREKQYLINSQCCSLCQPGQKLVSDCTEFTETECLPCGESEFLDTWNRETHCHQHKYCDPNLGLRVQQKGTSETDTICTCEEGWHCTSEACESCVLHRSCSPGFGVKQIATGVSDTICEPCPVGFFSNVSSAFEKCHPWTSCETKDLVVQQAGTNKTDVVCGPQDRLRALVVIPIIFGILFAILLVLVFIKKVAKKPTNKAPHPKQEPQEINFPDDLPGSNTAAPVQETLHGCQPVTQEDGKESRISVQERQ
T3 sequence (P12314 16-374): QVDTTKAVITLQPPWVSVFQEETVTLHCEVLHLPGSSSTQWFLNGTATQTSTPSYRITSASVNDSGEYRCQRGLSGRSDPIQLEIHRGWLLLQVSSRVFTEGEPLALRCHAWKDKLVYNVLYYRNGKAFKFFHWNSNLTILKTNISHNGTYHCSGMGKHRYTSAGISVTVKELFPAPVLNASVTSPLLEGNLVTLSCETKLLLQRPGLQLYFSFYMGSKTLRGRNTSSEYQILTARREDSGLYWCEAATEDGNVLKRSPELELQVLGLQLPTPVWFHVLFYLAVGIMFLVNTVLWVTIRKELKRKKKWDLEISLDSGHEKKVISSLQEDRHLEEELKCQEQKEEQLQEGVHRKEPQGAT
T4 sequence (P08637 17-254 F176V): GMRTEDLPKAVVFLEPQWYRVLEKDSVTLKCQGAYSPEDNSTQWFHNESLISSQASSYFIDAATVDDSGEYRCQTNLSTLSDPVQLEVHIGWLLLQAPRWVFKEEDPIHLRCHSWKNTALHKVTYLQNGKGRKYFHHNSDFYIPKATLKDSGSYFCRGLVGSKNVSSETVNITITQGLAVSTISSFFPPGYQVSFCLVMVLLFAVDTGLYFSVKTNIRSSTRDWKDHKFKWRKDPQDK

| Binder | binding result [1] | binding result [2] | EC50 (read off the curve) [3] [µg/mL] | binding result [4] | binding result [5] | Maximal activation (OD655) in HEK293 blue CD40 NFκB reporter cells (human CD40 on cells) [OD655] | NFκB activation EC50 (SEAP, OD655) in HEK293 blue CD40 NFκB reporter cells (human CD40 on cells) [µg/mL] | IC50 (read off the curve) [6] [µg/mL] |
| --- | --- | --- | --- | --- | --- | --- | --- | --- |
| B1 | binds | binds | ~0.5 | binds |  |  |  |  |
| B2 | binds | binds | ~0.4 |  |  |  |  |  |
| B3 |  |  |  |  | binds |  |  |  |
| B4 |  |  |  |  |  | 0.45 | 0.14 | ~0.3 |
| B5 |  |  |  |  |  | 0.46 | 0.07 | ~0.3 |
